Experiments:
Experiment in all cases: binding, other
RLN1 peptide on HLA = molecular target: T1, RLN1 peptide on HLA (human)
T1 peptide: ALSERQPSL

SLC45A2 peptide on HLA = molecular target: T2, SLC45A2 peptide on HLA (human)
T2 peptide: YVTPVLLSV

SMC1B peptide on HLA = molecular target: T3, SMC1B peptide on HLA (human)
T3 peptide: ALDNTNIGKV

XAGE1 peptide on HLA = molecular target: T4, XAGE1 peptide on HLA (human)
T4 peptide: KMPEAGEEQPQV

B1: TCR of SEQ ID NOs 525 and 526 (TCR, V domains shown)
Valpha: QKEVEQNSGPLSVPEGAIASLNCTYSDRGSQSFFWYRQYSGKSPELIMFIYSNGDKEDGRFTAQLNKASQYVSLLIRDSQPSDSATYLCAVGGYQKVTFGTGTKLQVIP
Vbeta: NAGVTQTPKFGILKIGQSMTLQCAQDMNHNYMYWYRQDPGMGLKLIYYSVGAGITDKGEVPNGYNVSRSTTEDFPLRLELAAPSQTSVYFCASRVDSYNEQFFGPGTRLTVL
B1: recognises (RLN1 peptide on HLA).

B2: TCR of SEQ ID NOs 575 and 576 (TCR, V domains shown)
Valpha: KQEVTQIPAALSVPEGENLVLNCSFTDSAIYNLQWFRQDPGKGLTSLLLIQSSQREQTSGRLNASLDKSSGRSTLYIAASQPGDSATYLCAALSYNTDKLIFGTGTRLQVFP
Vbeta: NAGVTQTPKFQVLKTGQSMTLQCAQDMNHNSMYWYRQDPGMGLRLIYYSASEGTTDKGEVPNGYNVSRLNKREFSLRLESAAPSQTSVYFCASSEAYLAAFFGQGTRLTVV
B2: recognises (SLC45A2 peptide on HLA).

B3: TCR of SEQ ID NOs 581 and 582 (TCR, V domains shown)
Valpha: KQEVTQIPAALSVPEGENLVLNCSFTDSAIYNLQWFRQDPGKGLTSLLLIQSSQREQTSGRLNASLDKSSGRSTLYIAASQPGDSATYLCAVFNDYKLSFGAGTTVTVRA
Vbeta: NAGVTQTPKFQVLKTGQSMTLQCAQDMNHEYMSWYRQDPGMGLRLIHYSVGAGITDQGEVPNGYNVSRLNKREFSLRLESAAPSQTSVYFCASSEWFDTEAFFGQGTRLTVV
B3: recognises (SMC1B peptide on HLA).

B4: TCR of SEQ ID NOs 585 and 586 (TCR, V domains shown)
Valpha: KQEVTQIPAALSVPEGENLVLNCSFTDSAIYNLQWFRQDPGKGLTSLLLIQSSQREQTSGRLNASLDKSSGRSTLYIAASQPGDSATYLCAVRGAGGTSYGKLTFGQGTILTVHP
Vbeta: NAGVTQTPKFQVLKTGQSMTLQCAQDMNHNSMYWYRQDPGMGLRLIYYSASEGTTDKGEVPNGYNVSRLNKREFSLRLESAAPSQTSVYFCASSDESYGYYGYTFGSGTRLTVV
B4: recognises (SMC1B peptide on HLA).

B5: TCR of SEQ ID NOs 611 and 612 (TCR, V domains shown)
Valpha: KQEVTQIPAALSVPEGENLVLNCSFTDSAIYNLQWFRQDPGKGLTSLLLIQSSQREQTSGRLNASLDKSSGRSTLYIAASQPGDSATYLCAVRPRGDSSYKLIFGSGTRLLVRP
Vbeta: DGGITQSPKYLFRKEGQNVTLSCEQNLNHDAMYWYRQDPGQGLRLIYYSQIVNDFQKGDIAEGYSVSREKKESFPLTVTSAQKNPTAFYLCASSASGSIYNEQFFGPGTRLTVL
B5: recognises (XAGE1 peptide on HLA).
